# Experimental data taken from US20220175942A1 (OXFORD UNIVERSITY INNOVATION, published 2022).
# T1: CCL5_HUMAN (human, UniProt P13501 24-91)
# T1 construct: Biotinylated (detected with streptavidin-Alexa647) in yeast display; AlexaFluor 647 labelled (Almac) in thermophoresis
# T1 sequence: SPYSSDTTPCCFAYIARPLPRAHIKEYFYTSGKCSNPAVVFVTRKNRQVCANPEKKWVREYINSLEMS
# T2: CXCL10_HUMAN (human, UniProt P02778 22-98)
# T2 construct: Biotinylated (detected with streptavidin-Alexa647) in yeast display; AlexaFluor 647 labelled (Almac) in thermophoresis
# T2 sequence: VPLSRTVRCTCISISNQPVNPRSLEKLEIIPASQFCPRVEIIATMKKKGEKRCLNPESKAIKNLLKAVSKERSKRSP
# T3: CCL8_HUMAN (human, UniProt P80075 24-99)
# T3 construct: Biotinylated (detected with streptavidin-Alexa647) in yeast display; AlexaFluor 647 labelled (Almac) in thermophoresis
# T3 sequence: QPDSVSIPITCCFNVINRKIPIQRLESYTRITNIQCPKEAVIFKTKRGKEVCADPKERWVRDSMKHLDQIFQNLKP
# T4: CCL17_HUMAN (human, UniProt Q92583 24-94)
# T4 construct: Biotinylated (detected with streptavidin-Alexa647) in yeast display; AlexaFluor 647 labelled (Almac) in thermophoresis
# T4 sequence: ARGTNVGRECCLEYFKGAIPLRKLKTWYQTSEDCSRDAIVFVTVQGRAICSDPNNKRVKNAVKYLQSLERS
# T5: CCL25_HUMAN (human, UniProt O15444 24-150)
# T5 construct: Biotinylated (detected with streptavidin-Alexa647) in yeast display; AlexaFluor 647 labelled (Almac) in thermophoresis
# T5 sequence: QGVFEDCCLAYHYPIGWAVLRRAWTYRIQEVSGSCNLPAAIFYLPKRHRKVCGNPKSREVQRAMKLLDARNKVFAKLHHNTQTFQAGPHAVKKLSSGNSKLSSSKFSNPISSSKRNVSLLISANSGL
# T6: P546_AMBCA (Amblyomma cajennense, UniProt A0A023FBW7 22-118)
# T6 construct: Tick evasin; also called Evasin
# T6 sequence: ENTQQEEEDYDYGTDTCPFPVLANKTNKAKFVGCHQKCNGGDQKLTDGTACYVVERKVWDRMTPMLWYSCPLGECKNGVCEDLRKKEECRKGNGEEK
# T7: P467_RHIPU (Rhipicephalus pulchellus, UniProt L7M8Z8 22-127)
# T7 construct: Tick evasin; also called Evasin
# T7 sequence: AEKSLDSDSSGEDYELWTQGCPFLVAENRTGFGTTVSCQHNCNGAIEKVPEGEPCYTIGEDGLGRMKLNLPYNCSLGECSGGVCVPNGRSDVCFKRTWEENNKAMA
# T8: P1182_AMBMA (Amblyomma maculatum, UniProt G3MJ83 27-115)
# T8 construct: Tick evasin; also called Evasin
# T8 sequence: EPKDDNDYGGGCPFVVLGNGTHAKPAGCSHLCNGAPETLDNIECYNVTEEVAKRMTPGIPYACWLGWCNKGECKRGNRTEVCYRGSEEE
# T9: P1243_AMBAM (Amblyomma americanum, UniProt A0A0C9S461 26-123)
# T9 construct: Tick evasin; also called Evasin
# T9 sequence: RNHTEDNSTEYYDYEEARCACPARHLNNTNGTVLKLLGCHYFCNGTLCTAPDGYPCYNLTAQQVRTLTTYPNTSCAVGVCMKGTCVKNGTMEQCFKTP
# T10: P991_AMBCA (Amblyomma cajennense, UniProt A0A023FFD0 29-136)
# T10 construct: Tick evasin; also called Evasin
# T10 sequence: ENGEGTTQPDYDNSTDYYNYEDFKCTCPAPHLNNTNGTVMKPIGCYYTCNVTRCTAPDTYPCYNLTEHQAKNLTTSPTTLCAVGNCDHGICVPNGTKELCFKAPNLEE
# T11: CXCL8_HUMAN (human, UniProt P10145 28-99)
# T11 construct: Biotinylated (detected with streptavidin-Alexa647) in yeast display; AlexaFluor 647 labelled (Almac) in thermophoresis
# T11 sequence: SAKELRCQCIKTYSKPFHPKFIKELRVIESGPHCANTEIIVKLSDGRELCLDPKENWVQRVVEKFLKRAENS
# T12: CCL3_HUMAN (human, UniProt P10147 24-92)
# T12 construct: Biotinylated (detected with streptavidin-Alexa647) in yeast display; AlexaFluor 647 labelled (Almac) in thermophoresis
# T12 sequence: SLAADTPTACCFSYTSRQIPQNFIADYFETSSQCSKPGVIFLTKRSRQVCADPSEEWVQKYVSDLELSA
# B1: P943_IXORI (other)
# chain: RSKQPTASQSSKNSIKAEFCDTNCTQGTNGAWSGCSEGCFCVHVGNNTKGRCMKLSSDYDYTTQ
# notes: Tick evasin; also called Evasin
# B2: P1283_IXORI (other)
# chain: KEPEDTTLPPGALVDSPDSDNCSSPHLPYFDETTNMWMGFLAVNCTKKCPVGKHVTVVDGNKCIGTWSFLDELTITVLVGSCKDGFCETDGSSECRNITLAEEDSQEEEGAAAEEEDEEDEEDEEEEEAEEEREDDHDDA
# notes: as for B1
# B3: P1063_AMBTR (other)
# chain: QSEVGKNVPGCGDTETLEAPPQEKPPYYEYKDEEGCTQKVLESWFQAGERSTGRGQKKRGHGRRPSRVLRTVDCRKNCTVGITALPDGHLCLVPRGDPFTRGGAIKYGCYLGDCASGHCQHRYETVSCRLPAPDTTAKPYYVTPEK
# notes: as for B1
# B4: P698_RHISA (other)
# chain: NEDDSSDYYDASPMNCSSMSVNSTMGWLSMNCTMSCNGTTFPLSNSTHCFHSYTNLTVQSRMETMTYNCSVGTCSNGTCVENGTTTTCW
# notes: as for B1
# B5: P1011_AMBTR (other)
# chain: EKDTPKNIPGCEDAGTTAAPPADNPKHYAVYTDKNGCTFKVIGTWMTKEDHRRLPVSLRRVRASSGRVKLPASCQKICKHSVKKFPEGTPCRLVTRDPIKGKNHIKNGCIRGYCSSGVCVSDNRSISCYVLPNNTELTSPSGSFAE
# notes: as for B1
# B6: CCL1_HUMAN (ligand)
# chain: KSMQVPFSRCCFSFAEQEIPLRAILCYRNTSSICSNEGLIFKLKRGKEACALDTVGWVQRHRKMLRHCPSKRK
# notes: Biotinylated (detected with streptavidin-Alexa647) in yeast display; AlexaFluor 647 labelled (Almac) in thermophoresis
# B7: CXCL11_HUMAN (ligand)
# chain: FPMFKRGRCLCIGPGVKAVKVADIEKASIMYPSNNCDKIEVIITLKENKGQRCLNPKSKQARLIIKKVERKNF
# notes: as for B6
# B8: CCL22_HUMAN (ligand)
# chain: GPYGANMEDSVCCRDYVRYRLPLRVVKHFYWTSDSCPRPGVVLLTFRDKEICADPRVPWVKMILNKLSQ
# notes: as for B6
# B9: CCL11_HUMAN (ligand)
# chain: not shown
# notes: as for B6
# B10: CCL18_HUMAN (ligand)
# chain: AQVGTNKELCCLVYTSWQIPQKFIVDYSETSPQCPKPGVILLTKRGRQICADPNKKWVQKYISDLKLNA
# notes: as for B6
# B11: P1219_IXORI (other)
# chain: ASLAKETEDTTLPARALVDSPDSDNCSSPQLPYFDELTYMPLGFLAVNCTKTCPVGKNGTVVNGNKCIVTWSILDVSTITVLVGSCKNGYCISDGSSECRNITLAGEDSQEEEEEAEEDEEEDDGDEEEDEEEDEEENDDD
# notes: as for B1
# B12: P1220_IXORI (other)
# chain: GSTPSAMKTEDILKVLGSTSSLENHTDSSHCRYQELLDITKNIENAGFLAINCQRSCPNGKQTMVEGYGCIFKIKHATKRGKVKVKEGSCRKGACVRGSTRPPWRLLVLLGESKEEEFL
# notes: as for B1
# B13: CCL19_HUMAN (ligand)
# chain: GTNDAEDCCLSVTQKPIPGYIVRNFHYLLIKDGCRVPAVVFTTLRGRQLCAPPDQPWVERIIQRLQRTSAKMKRRSS
# notes: as for B6
# B14: P1146_IXORI (other)
# chain: GPDTKGDEESDENELFTVEYCGTNCTQLENGSWTPCSGNNGNCRCFHESDKTVGLCLSTEYTDFSEYPDPNSSEIIAAAPLPRERLIQ
# notes: as for B1
# B15: P1030_AMBPA (other)
# chain: GPPSIPGNESIPGCGDAGTTTAPEDNPKHYGTLTDKKGCTLPIIGTWMTAVDHQHLQGTRGERRGPTGKVNLPASCRKNCHGRQEILRDGIPCRKVVGNPKGSKKHLKSGCLRGKCLAGQCVNDGRRISCYVPRNITDTEPTPGLLAE
# notes: Tick evasin
# B16: P1005_AMBMA (other)
# chain: EKDTPKNIPGCGDTGTTAAPPADNPKHFAVYTDKHGCTIKVIGTWMTKEDHSRLPVSLRRVRASSGRVMLPASCQKICNDTVKNFPEGTPCRLVTGDPIKGKNHIKDGCIRGYCSSGVCVSDKRNISCYVPPN
# notes: as for B1
# Columns and labels:
# CCL5_HUMAN [1] = target: T1, CCL5_HUMAN; assay: yeast surface display library FACS screen, labelled chemokine (col C: isolated in)
# CXCL10_HUMAN = target: T2, CXCL10_HUMAN; assay: as above
# CCL8_HUMAN = target: T3, CCL8_HUMAN; assay: yeast surface display FACS re-test, >3 fold MFI over control (col D);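 further: yeast displaying putative tick Evasins stained with biotinylated human chemokine plus streptavidin-Alexa647, flow cytometry, positive when MFI exceeds 3-fold the empty-vector or no-chemokine background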
# CCL5_HUMAN [2] = target: T1, CCL5_HUMAN; assay: as above
# CCL17_HUMAN [3] = target: T4, CCL17_HUMAN; assay: as above
# CCL18_HUMAN = target: B10; assay: as above
# CCL25_HUMAN [4] = target: T5, CCL25_HUMAN; assay: as above
# CCL11_HUMAN = target: B9; assay: yeast surface display library FACS screen, labelled chemokine (col C: isolated in)
# CCL11_HUMAN, sequence (P51671 24-97 limits assumed): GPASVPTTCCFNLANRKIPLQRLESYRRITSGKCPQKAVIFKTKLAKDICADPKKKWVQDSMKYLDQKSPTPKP
# P546_AMBCA = target: T6, P546_AMBCA; assay: microscale thermophoresis, AlexaFluor 647 labelled chemokine
# P467_RHIPU = target: T7, P467_RHIPU; assay: yeast surface display library FACS screen, labelled chemokine (col C: isolated in)
# P1182_AMBMA = target: T8, P1182_AMBMA; assay: as above
# P1243_AMBAM [5] = target: T9, P1243_AMBAM; assay: as above
# CCL19_HUMAN [6] = target: B13; assay: as above
# CCL25_HUMAN [7] = target: T5, CCL25_HUMAN; assay: as above
# P1243_AMBAM [8] = target: T9, P1243_AMBAM; assay: yeast surface display FACS re-test, >3 fold MFI over control (col D);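 further: yeast displaying putative tick Evasins stained with biotinylated human chemokine plus streptavidin-Alexa647, flow cytometry, positive when MFI exceeds 3-fold the empty-vector or no-chemokine background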
# P991_AMBCA = target: T10, P991_AMBCA; assay: yeast surface display library FACS screen, labelled chemokine (col C: isolated in)
# CXCL8_HUMAN [9] = target: T11, CXCL8_HUMAN; assay: as above
# CCL3_HUMAN = target: T12, CCL3_HUMAN; assay: yeast surface display FACS re-test, >3 fold MFI over control (col D);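 further: yeast displaying putative tick Evasins stained with biotinylated human chemokine plus streptavidin-Alexa647, flow cytometry, positive when MFI exceeds 3-fold the empty-vector or no-chemokine background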
# CCL20_HUMAN = target: T13, CCL20_HUMAN (human, UniProt P78556 27-96); assay: as above
# T13 construct: Biotinylated (detected with streptavidin-Alexa647) in yeast display; AlexaFluor 647 labelled (Almac) in thermophoresis
# T13 sequence (P78556 27-96 limits assumed): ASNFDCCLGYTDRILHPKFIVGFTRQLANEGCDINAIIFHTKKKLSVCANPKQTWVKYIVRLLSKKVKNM
# CXCL8_HUMAN [10] = target: T11, CXCL8_HUMAN; assay: as above
# CCL17_HUMAN [11] = target: T4, CCL17_HUMAN; assay: yeast surface display library FACS screen, labelled chemokine (col C: isolated in)
# CCL19_HUMAN [12] = target: B13; assay: yeast surface display FACS re-test, >3 fold MFI over control (col D);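 further: yeast displaying putative tick Evasins stained with biotinylated human chemokine plus streptavidin-Alexa647, flow cytometry, positive when MFI exceeds 3-fold the empty-vector or no-chemokine background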
# CCL1_HUMAN = target: B6; assay: yeast surface display library FACS screen, labelled chemokine (col C: isolated in)
binder,measurement,setting,value
B1,binding result,CCL5_HUMAN [1],binds
B2,binding result,CXCL10_HUMAN,binds
B3,binding result,CCL5_HUMAN [1],binds
B4,binding result,CCL8_HUMAN,binds
B5,binding result,CCL5_HUMAN [2],binds
same,binding result,CCL17_HUMAN [3],binds
same,binding result,CCL18_HUMAN,binds
same,binding result,CCL25_HUMAN [4],binds
same,binding result,CCL11_HUMAN,binds
B6,Kd,P546_AMBCA,149 nM
same,binding result,P467_RHIPU,binds
B7,binding result,P546_AMBCA,no binding
B8,Kd,P546_AMBCA,175 nM
B9,Kd,P546_AMBCA,500 nM
B10,Kd,P546_AMBCA,86 nM
same,binding result,P1182_AMBMA,binds
same,binding result,P1243_AMBAM [5],binds
B11,binding result,CCL19_HUMAN [6],binds
same,binding result,CXCL10_HUMAN,binds
B12,binding result,CCL25_HUMAN [7],binds
B13,binding result,P1243_AMBAM [8],binds
same,binding result,P991_AMBCA,binds
B14,binding result,CXCL8_HUMAN [9],binds
B15,binding result,CCL3_HUMAN,binds
same,binding result,CCL5_HUMAN [2],binds
same,binding result,CCL8_HUMAN,binds
same,binding result,CCL18_HUMAN,binds
same,binding result,CCL20_HUMAN,binds
same,binding result,CXCL8_HUMAN [10],binds
same,binding result,CCL11_HUMAN,binds
same,binding result,CCL17_HUMAN [11],binds
B16,binding result,CCL3_HUMAN,binds
same,binding result,CCL5_HUMAN [2],binds
same,binding result,CCL17_HUMAN [3],binds
same,binding result,CCL19_HUMAN [12],binds
same,binding result,CXCL8_HUMAN [10],binds
same,binding result,CCL1_HUMAN,binds
same,binding result,CCL11_HUMAN,binds
same,binding result,CCL25_HUMAN [7],binds
